Results reported in the DeepSol protein solubility set.

Assay: soluble on expression in E. coli; label from the status in PepcDB or PDB records

Sequence | soluble on expression in E. coli
MKKDIILSGVGGQGILSIATVIGKAALKEGLYMKQAEVHGMSQRGGDVQSNLRISDKPIASDLIPSGKCDLIISLEPMEGLRYLPYLSPEGWLVTNETPFVNIPNYPEEDKVMAEINKLPHKIVLNVDKVAKEVGSARVANIVLLGATIPFLGIDYEKVQDSIREIFLRKGEAIVEMNLKALAAGKEIAEKLMQ | not soluble
MGSDKIHHHHHHMDGTRERPMRKIIAATFVSLDGVMQAPGGPEEDPVGGFKFGGWTFHYFDEVGGAAMDELFSKPFTLLLGRRTYDIFTAYWPYQKDPIADAFNPATKYVATHRPDTLTWQNTQWLGEDIVAALRRLSKQDGPDLLIQRSADLIQTLLANGLIDEIRLMIFPLLLGKGKRLFGDGAMPAAFKLVKSQTSSTGVIIATYERSGEIEVGSFVMGEPSVAELERRRNWK | not soluble
MSEAPATEHGQCLCGAVGFTATLGAREFGVCHCSMCRRWSGGAFMAVECTDIAFENEQRLGVYSSSKWGERCFCKNCGSTLVWRSKDGKHFAVSLQAFDKPSSFTFVQQIFTDEKPSSYSFAQTTQNMTGPEFIAMITSAEH | not soluble
IVRACRFMAERQIGALIVIERQQNIEDLIEGCIYLDAYITAELIITIFYPLTPLHDGAVVIRDDRIAFASCVLPLSKNPELPKKYGTRHRAAVGITEMSDAVAIVVSEETGEISVAVEGNI | soluble
MGSDKIHHHHHHMDPRRRLVPDIITLQAFECAARHGNFTRAAEELNLTQSAVSRQIGELEAQTGMQLFERIRRRVVLSEAGRKFLPDVRRLLQQSEQLMVRAVSAGTSHASLSVATLPTFGSRWLMPRLSRFIDANPDMTITIGSRSHPFDFDEEGFDLAIHYGQPIWAHGTCTFLCNEVIVPVASPALLRRAGVNRAQDLAGQPLLHVTTRPKLWTEWLEMNGVTADNAYQGSRFDQFSMIIEAAASGIGFALLPRYLIEAELASSRLEIVFDIPLQTDKSYYVALPEGRQDNVLARAFQAWLLDQVGKPV | not soluble
MGSDKIHHHHHHMNYPQEKIKPYSNDGKKSEQVEQMFDNIAPAYDQLNHTLSLGIDRSWRRKAINWLKPFRPQQIMDVATGTGDFAILACHELQPEQLIGTDISEGMMNVGREKVKKEGLSEKISFAREDCTSLSFADNRFDAITVAFGIRNFEDLDKGLSEMYRVLKTGGHLVILELTTPDRFPMKQMFTIYSKIVIPTLGKLLSKDNSAYSYLPQTIKAFPQGEVMKNVISRVGFSQVQFRRLTFGICTLYTATK | not soluble
MEFSMNATVEQLAPVEQQATTDWVVAALYQFKEVADAADLQQRLLDLVKTINLCGTLIVASEGINGTVAGDRHAIDTIREFLLNEGFHAMEYKESHSAEKPFRKMKIKLKQEIVTLGVEVKPRDLVGHYLDPKEWNELISRDDVILVDTRNDYEYKAGTFKGAIDPKTETFREFPDYVKQNLEQHKDKKIAMFCTGGIRCEKSTSLLLQEGFNEVYHLKGGILKYLEETPAEESLWEGECFVFDGRTAVTHGVEEGQNVKCHACGWPLTPEEVALPSYEHGVSCVYCIEKTTEKQKEGFRMRQSQIAAAKRKRLLEHHHHHH | soluble
MNARSTGQHPARYPGAAAGEPTLDSWQEPPHNRWAFAHLGEMVPSAAVSRRPVNAPGHALVRLGAIAAQLPDLEQRLEQTYTDAFLVLRGTEVVAEYYRAGFAPDDRHLLMSVSKSLCGTVVGVLVDEGRIDPAQPVTEYVPELAGSVYDGPSVLQVLDMQISIDYNEDYVDPASEVQTHGRSAGWSTRRHGDPADTYEFLTTLRGDGSTGEFQYCSANTDVLAWIVERVTGLRYVEALSTYLWAKLDADRDATITVDTTGFGCAHGGVSCTARDLARVGRMMLDGGVAPRGRVVSEDWVRRVLAGGSHEAMTDKGFTNTFPDGSYTRQWWCTGNERANVSGIGIHGQNLWLDPLTDSVIVKLSSWPDPYTEHWHRLQNGILLDVSRALDAV | soluble
MEPGTYELRGTVHDETFNTTVWTPYNFEGFYYSIDENVSTESLTLTEEISGRSIDDEALVYSTSPALVKFEQESWGSYQVIGFMAEKYFAGYPANTFGNSRSVSVLSDDILAKVLIDDDHKRSMFTGSSIALENGYSLKAAEVDVNGNRVLLELYRDGELVDSGITSSNGDYIYEADIGGAEDVPMIAAHISTVFRSRETDAVFIEGIFQVSDDYLELSQGDSFGKMEISTISSSGITMKNEDSISLSRGNTISLMGNVSFKVADSNVLRFYPFVEVKSAPQDQLRIETPDVFVVGEAAEISVTARDAAVSDVEIRLGNQSIGTTGDDGILAYTPTLEGDFTLYANKAGYLSGSKDVDIVLEHHHHHH | soluble
MSDATYADAVIMEMNGRDIEIVSIKPQTTTGRKPVKTMNRNGRVNGYCDGVTEHKLSVTAAIPIDGTEIDWDNITKAKITIYPINDEDRRTSYLDCFTVDTGEQYEVDNEARIDIEMIALHKIKE | not soluble
MSLFHDVRFPVSLSFGARGGPERRTEIVTLANGAEERNTPWAHSRRRFDAGMGLRSLDDLETVIAFFEARAGQMHAFRWKDWSDFKSCRPSASPAPTDQLLGMGDETTATFQLVKHYGTGGDTYARPITRPVAGTVQVAVGGSPVTEGVEWSVDTATGMVTFTHPPDVGGEVTAGFEFDVPVRFDTDRIETSLASFNAGEVPDLPVVEVRPEGHHHHHH | soluble
MSLGNKRVLITGATGFIGGYLVDEALRRQYEVWAAVRPHSDRSRLTDSRIRFVEIDYRDPSDIARLADKIAPEGESAWHLVIHNAGITKARDTSLFREINAEQTKRFLIGLQGAKHCPERFVLMSSMGSYGAPPDDCQPLSSSSVPKPTTAYGESKLLAEQYVQTFVTIPYTIIQPTGVYGPHDQDYLMAIRSVDKGFDFSTGNTPQTLTFIYAEDLASAVFIAAEHPDAAGQKYIVSDGKEYTDIEFGRMIQHLLDRKNVCHLRIPLPLVKATCYIGQKWADISGTLTPLNLDKYAIIAQRNWRCDSSPIRAIGFSPRYNLEQGLAETIRWARTTGQIREGHHHHHH | soluble
MAGDPMVLKRIRDMFVASVHEGLDKMENPKVMLNQYVRDMESDIAKAKQTIVKQHTIAYQFKKKYEEAAEVAGKRKNQAQLAFDAGEEELAKKALTEMKYLEGKAAEHKASYEQANSQLADLKEQLAALETKLQDVKDKKQALIARANAAKAKEHMNTTFDKIDSESAYREFLRIENRIEEMEIRANYSKSAEAGTELTRKEFADDVEAEIEKMRTLSLQKSDQTKAANELEHHHHHH | soluble
MGSDKIHHHHHHLVGSGGTGAPPPRSSPMTTLYVTQPGSVVRSEGGSLTVWVETEADDPGPNDSPVRRKRLASVEPHRLESLVLLGFTTITANAMRLCMANKIAVSLLDGGGGLAARVVPPEARSADLRLHQYALHLDPPERLIRARAVVTAKLRNAAAVLRGIRSNQASSAALASAITQTEASAEAAAAAVSAESLLGIEGNGAHQYFAGLRTAFVGGIPFLGRAQRPPPDPANSLLSFGYVLLGNRLTGLLEARGVDPCLGFFHDLRPGRPSLALDLLEELRHPVVDRLALRICNLRKIQPQHFEPDAERPGGVKLTVDGRKIFLEEWEGHLARPLREPGVAAEHRLDVHRLLQRQVDRLVSDLRGGEPYRPFRFGTSRPG | not soluble
SGGAVSAGEDNDELIDNLKEAQYIRTELVEQAFRAIDRADYYLEEFKENAYKDLAWKHGNIHLSAPCIYSEVMEALDLQPGLSFLNLGSGTGYLSSMVGLILGPFGVNHGVELHSDVIEYAKQKLDFFIRTSDSFDKFDFCEPSFVTGNCLEISPDCSQYDRVYCGAGVQKEHEEYMKNLLKVGGILVMPLEEKLTKITRTGPSAWETKKILAVSFAPLIQPCHSESGKSRLVQLRSPSFVQGWSVVVLSQLTAASTFQAEAILPSQSPTWLRLQVLATMPN | not soluble
TIEARTAQSTPSAPPQKVMCVSMGSTTVRVSWVPPPADSRNGVITQYSVAYEAVDGEDRGRHVVDGISREHSSWDLVGLEKWTEYRVWVRAHTDVGPGPESSPVLVRTDEDVPSGPPRKVE | soluble
MRVAIFTDTFTPQVNGVAKTLERLTRYFQKENIAYSVFAPQHTAEDNFVANVNKMRSIPLTILYPECRFSFPTPRIKRELLSFKPDIIHIATPFNMGLCGLYYAKKLNIPVVGSYHTDFDAYLRYYKIEFLSNMLWNYLKWFHSHMQKNFVPSPETLHQLKHKGFQALSIWGRGVDCNLFHPAYNTDLFRKKYNITAKYVLSYIGRIAPEKDIDTLQNLIVKSTHTRNDIHWLIAGDGPLATNLRETVPQTNVTFTGYLQGGDLAEAYACSNLMVFPSATETFGNVVLESLACGTPVIGANSGGVKNIITDGKTGVLCPPKNEDAFLSSIYFLLQNEEKLKQMGIAALSYAKSKSWDEIFRGLLNEYEEVLQHNASELLALEHHHHHH | not soluble
MGSDKIHHHHHHMLITAYRERQTRHREKIQRLLNFLKEETYSDFKILMLLFGFRDHKSLYSLLSKVEGMGLIKKHVLVSRTMKISLWGITSDGLAVVLTPDDAIFPARFEPSKITGWTLEHHLDNQVARITLEQKGASGWVNGDRTTFLSRYEVSHRPDGLITLPGGTVIAIETERRLKTKARYQSILASHLLARTRKNWIYVFYIVPDPQKKRGLERLFEGIRHVIINHQHIPLETRHRNVFRIYTLDELQRLNLGHCL | not soluble
GSHMNPLTQAVPKCQRWEKLQNSRCVCKMPYECGPSLDVCAQDERSKRILPLTVCKMHVLHCQGRNYTLTGRDSCTLPASAEKACGACPLWGKCDAESSKCVCREASECEEEGFSICVEVNGKEQTMSECEAGALRCRGQSISVTSIRPCAAETQ | soluble
MYFPAAIDTSLAAEDLGIWAPIDHQRIISLLTIGLGVLYHREKAISLEPLPETMLDEGKASPVPDISLRDNSASQTPIIIEVCHTNGLKGDLRKVIQLIDDGDYGIQEGFIYDYRAGTWVLYRSGGDGLTQSTSFSDILQLDLNQFL | not soluble
MAHHHHHHMKRLIQSLQHFSVTSSEHVELFSKITLRDFGFYVSDADAMRYVADEAYSIAERAFQLENALHQHRLSASTAQVSPMAWKSSSNDTVGCSTLYQDEAVTLCWFVLPPGKVLPLHDHPGMTVWQRAMHGRLHLCSITREAVSQTSTGASTAPINGTVVFDGELDGVGDAIPASDVLGFTPTDGDGGGMLHEIRNIDATQPALFVDIISPPYNQASSSMVCGYYTAEPLNATATLLPALAADCGVRHQLKAGDKVRLRPRTNYSGPAMNAFLHVV | not soluble
DIEVSEDVRKEQLGWLSCVSRAILKQNIITYSQPIVHAYSHLPASQECLVRILEEDGTVIAPGRFLPIISDTHLYTRLSRHMIRSTLHYMRDKKGDFSINLSPQDLLSDKTLMLLEHEISQLNDPTRIGLEVLESEQIKDYGRMIEVCSHFRKLGARIIVDDFGSGYSNIDEILKLEPEVIKLDGSLIRDIDKDLKQRKIASQLVRLCQVFNAETVAEFVHNREVCKIAQDMGVDYLQGYYLGEP | not soluble
MGSDKIHHHHHHMDIQNMPREQLGVCAEGNLHSVYLMFNANDNVESQLRPCIANVAQYIYELTDQYSDSAFNGFVAIGANYWDSLYPESRPEMLKPFPAMQEGNREAPAIEYDLFVHLRCDRYDILHLVANEISQMFEDLVELVEEERGFRFMDSRDLTGFVDGTENPKGRHRQEVALVGSEDPEFKGGSYIHVQKYAHNLSKWHRLPLKKQEDIIGRTKQDNIEYESEDKPLTSHIKRVNLKDENGKSIEILRQSMPYGSLKEQGLMFISTCRTPDHFEKMLHSMVFGDGAGNHDHLMHFTSALTGSSFFAPSLDFLMQFDN | not soluble
MGSDKIHHHHHHMKLLVTGATGKLGTKIVEHLLTKIEAENVIVSVRDPKKANELASRGIEVRHGDFDEPDTLQQAFAGVDRLLIISTDGEEATRIRQHTAAVEAAKAAGVGLIAYTSIANAEASQNFLARTHQVTEQLIRETGIPFLFFRNNWYLENEQSTIDAVRAGQDWLTSAGNGTVGWALQEDYAEAIATVLVDPKPTKSIYELSGPLHTQQDIAEALGQVLGRPVQVKQVDSATYTAIMQQAGVPEFLLPMLQAIQEGIAAGTLAVESQDFEHILDRPPVSLEDGLRQLVQR | not soluble
